Each binder was assayed against biotinylated human DLL3 protein expressed as a human IgG1 fusion protein (human) (UniProt Q9NYJ7) (assay: Octet, biotinylated human DLL3-IgG1 fusion on streptavidin tips, single 50 nM, conditioned medium (relative KD)).
biotinylated human DLL3 protein expressed as a human IgG1 fusion protein (human), sequence (Q9NYJ7 27-492): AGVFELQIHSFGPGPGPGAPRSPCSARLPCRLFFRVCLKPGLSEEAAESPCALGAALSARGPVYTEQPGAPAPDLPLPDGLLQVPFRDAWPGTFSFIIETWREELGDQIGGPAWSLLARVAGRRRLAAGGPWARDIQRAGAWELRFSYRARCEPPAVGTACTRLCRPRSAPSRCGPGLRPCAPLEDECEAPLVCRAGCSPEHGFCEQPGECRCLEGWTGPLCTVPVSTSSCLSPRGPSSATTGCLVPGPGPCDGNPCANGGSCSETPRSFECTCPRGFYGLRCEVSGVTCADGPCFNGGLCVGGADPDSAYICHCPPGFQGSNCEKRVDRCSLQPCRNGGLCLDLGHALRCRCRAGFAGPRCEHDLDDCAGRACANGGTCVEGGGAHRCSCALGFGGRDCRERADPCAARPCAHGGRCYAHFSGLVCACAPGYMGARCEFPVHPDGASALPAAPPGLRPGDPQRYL

| Binder | Kd [nM] |
| --- | --- |
| anti-DLL3 trispecific protein, DLL3 binder 2G011 (protein, part only; not given: anti-CD3 fragment and anti-albumin sdAb, part only) chain, part: EVQLVESGGGLVQPGGSLTLSCVASGSTSSINAMGWYRRAPGKQRELPAGISRDGSKVYADSVKGRFTISRDNAKNSVYLQMNSLRAEDTAVYYCYYFRYVSGSSMRYWGQGTLVTVSSGGGGSGGGSGGGGSGGGSHHHHHH | 13 |
| anti-DLL3 trispecific protein, DLL3 binder 2B011 (protein, part only; not given: CD3 binder and albumin binder, part only) chain, part: EVQLVESGGGLVQPGGSLTLSCVASGNTSSINAMGWYRRAPGKQRELVAGISSDGSRVYADSVKGRFTISRDNAKNSVYLQMNSLRAEDTAVYYCYYFRTVSGSSMRSWGQGTLVTVSSGGGGSGGGSGGGGSGGGSHHHHHH | 11 |
| anti-DLL3 trispecific protein, DLL3 binder 1F07 (protein, part only; not given: CD3 fragment and albumin sdAb, part only) chain, part: EVQLVESGGGLVQPGGSLTLSCVASGSTSSINAMGWYRRAPGKQRELVAGISSDGSKVDADSVKGRFTISRDNAKNSVYLQMNSLRAEDTAVYYCYYFRTVSGSSMRYWGQGTLVTVSSGGGGSGGGSGGGGSGGGSHHHHHH | 13 |
| anti-DLL3 trispecific protein, DLL3 binder 1G04 (protein, part only; not given: anti-CD3 fragment and anti-albumin sdAb, part only) chain, part: EVQLVESGGGLVQPGGSLTLSCVASGSTSSTNAMGWYRRAPGKQRELVAGISSDGSKVLADSVKGRFTISRDNAKNSVYLQMNSLRAEDTAVYYCYYFRTVNLSSMRYWGQGTLVTVSSGGGGSGGGSGGGGSGGGSHHHHHH | 11 |
| anti-DLL3 trispecific protein, DLL3 binder 2C01 (protein, part only; not given: anti-CD3 fragment and anti-albumin sdAb, part only) chain, part: EVQLVESGGGLVQPGGSLTLSCVASGSTASINAMGWYRRAPGKQRELVAGISSDGSKVYADSVKGRFTISRDNAKNSVYLQMNSLRAEDTAVYYCYYFRYVSGSSMRYWGQGTLVTVSSGGGGSGGGSGGGGSGGGSHHHHHH | 12 |
| anti-DLL3 trispecific protein, DLL3 binder 3E011 (protein, part only; not given: CD3 binder and albumin binder, part only) chain, part: EVQLVESGGGLVQPGGSLTLSCAASGSKVSFLSMAWYRQAPGKKRELVAGISRDGSTDYIDSVKGRFTISRDNAKNSVYLQMNSLRAEDTAVYYCYAYRWTTRYTFWGQGTLVTVSSGGGGSGGGSGGGGSGGGSHHHHHH | 11 |
| anti-DLL3 trispecific protein, DLL3 binder 3F09 (protein, part only; not given: anti-CD3 fragment and anti-albumin sdAb, part only) chain, part: EVQLVESGGGLVQPGGSLTLSCAASGSSVRFLSMAWYRQAPGKKRELVAGISRDGSTDYIDSVKGRFTISRDNAKNSVYLQMNSLRAEDTAVYYCYAYRWGTRYTYWGQGTLVTVSSGGGGSGGGSGGGGSGGGSHHHHHH | 12 |
| anti-DLL3 trispecific protein, DLL3 binder 4H03 (protein, part only; not given: CD3 binder and albumin binder, part only) chain, part: EVQLVESGGGLVQPGGSLTLSCAASGSRVSFLSMAWYRQAPGKKRELVAGISADGSTSYIDSVKGRFTISRDNAKNSVYLQMNSLRAEDTAVYYCYAYRWTTRYTYWGQGTLVTVSSGGGGSGGGSGGGGSGGGSHHHHHH | 13 |
| anti-DLL3 trispecific protein, DLL3 binder 3B010 (protein, part only; not given: anti-CD3 and anti-albumin domains, part only) chain, part: EVQLVESGGGLVQPGGSLTLSCAASGSSVSFLSMAWYRQAPGKKRELVAGISRDGSTDYIDSVKGRFTISRDNAKNSVYLQMNSLRAEDTAVYYCYAYRWVTRYTYWGQGTLVTVSSGGGGSGGGSGGGGSGGGSHHHHHH | 12 |
| anti-DLL3 trispecific protein, DLL3 binder 3E02 (protein, part only; not given: anti-CD3 fragment and anti-albumin domain, part only) chain, part: EVQLVESGGGLVQPGGSLTLSCAASGSGVRFLSMAWYRQAPGKKRELVAGISPDGSTDYIDSVKGRFTISRDNAKNSVYLQMNSLRAEDTAVYYCYAYRWTRRYTYWGQGTLVTVSSGGGGSGGGSGGGGSGGGSHHHHHH | 12 |
| anti-DLL3 trispecific protein, DLL3 binder 3G06 (protein, part only; not given: CD3 binder and albumin binder, part only) chain, part: EVQLVESGGGLVQPGGSLTLSCAASGSSVKFLSMAWYRQAPGKKRELVAGISADGSTLYIDSVKGRFTISRDNAKNSVYLQMNSLRAEDTAVYYCYAYRWTTRRTYWGQGTLVTVSSGGGGSGGGSGGGGSGGGSHHHHHH | 12 |
| anti-DLL3 trispecific protein, DLL3 binder 3G07 (protein, part only; not given: anti-CD3 fragment and anti-albumin sdAb, part only) chain, part: EVQLVESGGGLVQPGGSLTLSCAASGSSVSFLSMAWYRQAPGKKRELVAGISRDGSTDYIDSVKGRFTISRDNAKNSVYLQMNSLRAEDTAVYYCYAYRWTSRYTYWGQGTLVTVSSGGGGSGGGSGGGGSGGGSHHHHHH | 13 |
| anti-DLL3 trispecific protein, DLL3 binder 3C011 (protein, part only; not given: anti-CD3 fragment and anti-albumin domain, part only) chain, part: EVQLVESGGGLVQPGGSLTLSCAASGSSVRFLSMAWYRQAPGKKRELVAGISAHGSTDYIDSVKGRFTISRDNAKNSVYLQMNSLRAEDTAVYYCYAYRWRTRYTYWGQGTLVTVSSGGGGSGGGSGGGGSGGGSHHHHHH | 14 |
| anti-DLL3 trispecific protein, DLL3 binder 3D02 (protein, part only; not given: anti-CD3 fragment and anti-albumin sdAb, part only) chain, part: EVQLVESGGGLVQPGGSLTLSCAASGSSVRFLSMAWYRQAPGKKRELVAGISRDGSTDYIDSVKGRFTISRDNAKNSVYLQMNSLRAEDTAVYYCYAYRWITRYTYWGQGTLVTVSSGGGGSGGGSGGGGSGGGSHHHHHH | 12 |
| anti-DLL3 trispecific protein, DLL3 binder 4E01 (protein, part only; not given: anti-CD3 fragment and anti-albumin sdAb, part only) chain, part: EVQLVESGGGLVQPGGSLTLSCAASGSSVSFLSVAWYRQAPGKKRELVAGISRDGSTDYIDSVKGRFTISRDNAKNSVYLQMNSLRAEDTAVYYCYAYRWRTRYTYWGQGTLVTVSSGGGGSGGGSGGGGSGGGSHHHHHH | 11 |
| anti-DLL3 trispecific protein, DLL3 binder 4E011 (protein, part only; not given: anti-CD3 fragment and anti-albumin sdAb, part only) chain, part: EVQLVESGGGLVQPGGSLTLSCAASGSSVSFLSMAWYRQAPGKKRELVAGISATGSTDYIDSVKGRFTISRDNAKNSVYLQMNSLRAEDTAVYYCYAYRWSTRYTYWGQGTLVTVSSGGGGSGGGSGGGGSGGGSHHHHHH | 13 |
| anti-DLL3 trispecific protein, DLL3 binder 3E04 (protein, part only; not given: CD3 fragment and albumin sdAb, part only) chain, part: EVQLVESGGGLVQPGGSLTLSCAASGSSVHFLSMAWYRQAPGKKRELVAGISRDGSTDYIDSVKGRFTISRDNAKNSVYLQMNSLRAEDTAVYYCYAYRWTTRYRYWGQGTLVTVSSGGGGSGGGSGGGGSGGGSHHHHHH | 11 |
| anti-DLL3 trispecific protein, DLL3 binder 4E07 (protein, part only; not given: CD3 binder and albumin binder, part only) chain, part: EVQLVESGGGLVQPGGSLTLSCAASGSRVSFLSMAWYRQAPGKKRELVAGISADGSTMYIDSVKGRFTISRDNAKNSVYLQMNSLRAEDTAVYYCYAYRWTTRLTYWGQGTLVTVSSGGGGSGGGSGGGGSGGGSHHHHHH | 11 |
| anti-DLL3 trispecific protein, DLL3 binder 3D03 (protein, part only; not given: anti-CD3 fragment and anti-albumin sdAb, part only) chain, part: EVQLVESGGGLVQPGGSLTLSCAASGSSVVFLSMAWYRQAPGKKRELVAGISADGSMDYIDSVKGRFTISRDNAKNSVYLQMNSLRAEDTAVYYCYAYRWRTRYTYWGQGTLVTVSSGGGGSGGGSGGGGSGGGSHHHHHH | 11 |

Next, values leading:

| Kd [nM] | Binder |
| --- | --- |
| 11 | anti-DLL3 trispecific protein, DLL3 binder 2E06 (protein, part only; not given: CD3 binder and albumin binder, part only) chain, part: EVQLVESGGGLVQPGGSLTLSCVASGSTSSINAMGWYRRAPGKQRELVAGISSDGSKVYASSVKGRFTISRDNAKNSVYLQMNSLRAEDTAVYYCYYFRTVRGSSMRYWGQGTLVTVSSGGGGSGGGSGGGGSGGGSHHHHHH |
| 12 | anti-DLL3 trispecific protein, DLL3 binder 1B08 (protein, part only; not given: CD3 binder and albumin binder, part only) chain, part: EVQLVESGGGLVQPGGSLTLSCVASGTTSSINAMGWYRRAPGKQRELVAGISSDGSKVYVDSVKGRFTISRDNAKNSVYLQMNSLRAEDTAVYYCYYFRFVSGSSMRYWGQGTLVTVSSGGGGSGGGSGGGGSGGGSHHHHHH |
| 12 | anti-DLL3 trispecific protein, DLL3 binder 4F03 (protein, part only; not given: CD3 binder and albumin binder, part only) chain, part: EVQLVESGGGLVQPGGSLTLSCAASGSSVQFLSMAWYRQAPGKKRELVAGISYDGSTDYIDSVKGRFTISRDNAKNSVYLQMNSLRAEDTAVYYCYAYRWRTRYTYWGQGTLVTVSSGGGGSGGGSGGGGSGGGSHHHHHH |
| 12 | anti-DLL3 trispecific protein, DLL3 binder 3A03 (protein, part only; not given: CD3 fragment and albumin sdAb, part only) chain, part: EVQLVESGGGLVQPGGSLTLSCAASGSRVSFLSMAWYRQAPGKKRELVAGISRDGSTDYIDSVKGRFTISRDNAKNSVYLQMNSLRAEDTAVYYCYAYRWTTRRTYWGQGTLVTVSSGGGGSGGGSGGGGSGGGSHHHHHH |
| 12 | anti-DLL3 trispecific protein, DLL3 binder 3G08 (protein, part only; not given: anti-CD3 fragment and anti-albumin sdAb, part only) chain, part: EVQLVESGGGLVQPGGSLTLSCAASGSRVSFLSMAWYRQAPGKKRELVAGISKDGSTDYIDSVKGRFTISRDNAKNSVYLQMNSLRAEDTAVYYCYAYRWTTRVTYWGQGTLVTVSSGGGGSGGGSGGGGSGGGSHHHHHH |
| 13 | anti-DLL3 trispecific protein, DLL3 binder 3H07 (protein, part only; not given: anti-CD3 and anti-albumin domains, part only) chain, part: EVQLVESGGGLVQPGGSLTLSCAASGSRVSFLSMAWYRQAPGKKRELVAGISADGSTSYIDSVKGRFTISRDNAKNSVYLQMNSLRAEDTAVYYCYAYRWRTRYTYWGQGTLVTVSSGGGGSGGGSGGGGSGGGSHHHHHH |
| 13 | anti-DLL3 trispecific protein, DLL3 binder 3F03 (protein, part only; not given: CD3 fragment and albumin sdAb, part only) chain, part: EVQLVESGGGLVQPGGSLTLSCAASGSSVSFLSMAWYRQAPGKKRELVAGISADGSTDYIDSVKGRFTISRDNAKNSVYLQMNSLRAEDTAVYYCYAYRWRTRYTYWGQGTLVTVSSGGGGSGGGSGGGGSGGGSHHHHHH |
| 12 | anti-DLL3 trispecific protein, DLL3 binder 3A010 (protein, part only; not given: anti-CD3 fragment and anti-albumin sdAb, part only) chain, part: EVQLVESGGGLVQPGGSLTLSCAASGSRVSFLSMAWYRQAPGKKRELVAGISADGSTLYIDSVKGRFTISRDNAKNSVYLQMNSLRAEDTAVYYCYAYRWTTRRTYWGQGTLVTVSSGGGGSGGGSGGGGSGGGSHHHHHH |
| 12 | anti-DLL3 trispecific protein, DLL3 binder 4B04 (protein, part only; not given: anti-CD3 fragment and anti-albumin sdAb, part only) chain, part: EVQLVESGGGLVQPGGSLTLSCAASGSSVLFLSMAWYRQAPGKKRELVAGVSSDGSTDYIDSVKGRFTISRDNAKNSVYLQMNSLRAEDTAVYYCYAYRWRTRYTYWGQGTLVTVSSGGGGSGGGSGGGGSGGGSHHHHHH |
| 13 | anti-DLL3 trispecific protein, DLL3 binder 4A06 (protein, part only; not given: anti-CD3 fragment and anti-albumin domain, part only) chain, part: EVQLVESGGGLVQPGGSLTLSCAASGSSVRFLSMAWYRQAPGKKRELVAGISRDGSTDYIDSVKGRFTISRDNAKNSVYLQMNSLRAEDTAVYYCYAYRWTTRRTYWGQGTLVTVSSGGGGSGGGSGGGGSGGGSHHHHHH |
| 12 | anti-DLL3 trispecific protein, DLL3 binder 3B02 (protein, part only; not given: CD3 fragment and albumin sdAb, part only) chain, part: EVQLVESGGGLVQPGGSLTLSCAASGSSVQFLSMAWYRQAPGKKRELVAGISADGSTDYINSVKGRFTISRDNAKNSVYLQMNSLRAEDTAVYYCYAYRWRTRYTYWGQGTLVTVSSGGGGSGGGSGGGGSGGGSHHHHHH |
| 12 | anti-DLL3 trispecific protein, DLL3 binder 3A08 (protein, part only; not given: CD3 binder and albumin binder, part only) chain, part: EVQLVESGGGLVQPGGSLTLSCAASGSSVGFLSMAWYRQAPGKKRELVAGISADGSTDYIRSVKGRFTISRDNAKNSVYLQMNSLRAEDTAVYYCYAYRWRTRYTYWGQGTLVTVSSGGGGSGGGSGGGGSGGGSHHHHHH |
